Experimental data reported in patent publication US20170305994A1 (Novo Nordisk, published 2017).

What was measured:
DR3 (CRD1)-Fc = molecular target: T1, DR3 (CRD1)-Fc (human); experiment: SPR Biacore T200, DR3(CRD1)-Fc captured by anti-human IgG, Fab as analyte, 25 C, 1:1 model, mean of 3 surface densities
T1 construct: Amino acids 25-71 of DR3 fused to the Fc domain of human IgG4; purified to exclude oligomers (mainly dimeric)
Method: The experiments were performed on a Biacore T200 instrument (GE Healthcare) and analysed with the Biacore T200 Evaluation Software. Anti human IgG antibodies (human IgG capture kit from GE Healthcare) were immobilized on all flow cells of a CM5 sensor chip according to manufacturer's instructions. HBS-EP (GE Healthcare) with 0.1% human serum albumin was used as running buffer. DR3(CRD1)-Fc (SEQ ID NO:2) was captured on the chip at low surface densities between 14 and 45 RU. Fab fragments were diluted to concentrations between 90 and 0.037 nM and subsequently injected for 360 s. […] Binding curves were measured at 25° C. with a flow rate between 30 and 60 μL/min.
Regeneration was performed with 3 M […] for 2×20 s. The raw data were double referenced by subtraction of the signals from a reference flow cell without captured ligand and a buffer blank. Determination of the kinetic parameters was performed by fitting with a 1:1 binding model using the Biacore T200 Evaluation Software (GE Healthcare). Average values obtained from 3 different surface densities of DR3(CRD1)-Fc (SEQ ID NO:2) were calculated and are stated in table 14

[1] = molecular target: T2, human DR3 (full length, on cells) (human, UniProt Q93038 25-417); experiment: cell-based or functional assay
T2 sequence: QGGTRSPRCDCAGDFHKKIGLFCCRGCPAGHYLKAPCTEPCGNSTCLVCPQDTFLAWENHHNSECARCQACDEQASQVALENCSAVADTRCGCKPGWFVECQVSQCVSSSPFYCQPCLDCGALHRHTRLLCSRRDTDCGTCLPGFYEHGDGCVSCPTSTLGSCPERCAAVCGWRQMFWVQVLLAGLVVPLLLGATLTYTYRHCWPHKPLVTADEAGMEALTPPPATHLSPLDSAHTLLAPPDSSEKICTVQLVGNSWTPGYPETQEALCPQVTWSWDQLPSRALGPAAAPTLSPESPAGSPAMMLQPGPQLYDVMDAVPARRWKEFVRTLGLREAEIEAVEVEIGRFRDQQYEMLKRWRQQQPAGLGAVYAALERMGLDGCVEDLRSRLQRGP

human DR3 R29Q = molecular target: T3, human DR3 R29Q (human, UniProt Q93038 25-417); experiment: cell-based or functional assay
T3 sequence: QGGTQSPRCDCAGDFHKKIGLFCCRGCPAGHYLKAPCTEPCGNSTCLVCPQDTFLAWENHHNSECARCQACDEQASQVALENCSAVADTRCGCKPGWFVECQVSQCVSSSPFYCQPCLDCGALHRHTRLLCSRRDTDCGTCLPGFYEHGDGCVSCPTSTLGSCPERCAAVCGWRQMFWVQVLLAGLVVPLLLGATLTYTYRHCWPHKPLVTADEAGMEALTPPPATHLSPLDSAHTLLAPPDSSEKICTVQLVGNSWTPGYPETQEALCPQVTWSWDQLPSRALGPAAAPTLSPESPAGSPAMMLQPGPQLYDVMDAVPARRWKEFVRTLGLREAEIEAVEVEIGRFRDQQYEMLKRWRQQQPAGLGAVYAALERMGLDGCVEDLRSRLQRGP

[2] = molecular target: T4, marmoset DR3 (transiently expressed on HEK293 cells) (marmoset, UniProt U3ENN5 27-418); experiment: cell-based or functional assay
T4 sequence: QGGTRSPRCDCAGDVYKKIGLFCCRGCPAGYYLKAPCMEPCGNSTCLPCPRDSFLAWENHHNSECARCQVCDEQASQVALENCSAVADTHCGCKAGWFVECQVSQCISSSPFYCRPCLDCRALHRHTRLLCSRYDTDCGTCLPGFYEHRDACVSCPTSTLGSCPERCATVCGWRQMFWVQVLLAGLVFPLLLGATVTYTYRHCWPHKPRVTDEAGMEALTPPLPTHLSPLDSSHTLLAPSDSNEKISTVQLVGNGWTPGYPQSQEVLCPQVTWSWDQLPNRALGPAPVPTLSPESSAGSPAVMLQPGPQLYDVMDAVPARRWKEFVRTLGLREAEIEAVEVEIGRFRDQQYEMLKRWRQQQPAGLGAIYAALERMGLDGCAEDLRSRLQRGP

[3] = molecular target: T2, human DR3 (full length, on cells); experiment: cell-based or functional assay; remark: listed apart in the source
[4] = molecular target: T5, cynomolgus DR3 (on HEK293 reporter cells) (cynomolgus, UniProt A0A2K5WJ09 98-464); experiment: cell-based or functional assay
T5 sequence: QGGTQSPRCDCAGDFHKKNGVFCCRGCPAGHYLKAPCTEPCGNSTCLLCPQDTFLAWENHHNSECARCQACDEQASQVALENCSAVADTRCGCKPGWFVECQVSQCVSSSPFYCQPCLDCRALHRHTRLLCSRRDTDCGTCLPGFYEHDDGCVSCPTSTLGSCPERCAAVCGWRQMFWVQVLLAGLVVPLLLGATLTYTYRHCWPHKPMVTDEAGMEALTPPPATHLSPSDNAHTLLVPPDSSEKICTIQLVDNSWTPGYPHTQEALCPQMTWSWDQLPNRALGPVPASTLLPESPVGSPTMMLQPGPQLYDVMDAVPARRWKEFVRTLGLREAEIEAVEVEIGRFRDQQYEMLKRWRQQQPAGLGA

[5] = molecular target: T6, human DR3 with the death domain deleted (ΔM339-P417 of SEQ ID NO:1), expressed on CHOK1SV cells (human, UniProt Q93038 25-338); experiment: FACS on DR3 expressing cells; competitor Mab 0107
T6 construct: also called truncated DR3; hDR3 expressing CHO cells
T6 sequence: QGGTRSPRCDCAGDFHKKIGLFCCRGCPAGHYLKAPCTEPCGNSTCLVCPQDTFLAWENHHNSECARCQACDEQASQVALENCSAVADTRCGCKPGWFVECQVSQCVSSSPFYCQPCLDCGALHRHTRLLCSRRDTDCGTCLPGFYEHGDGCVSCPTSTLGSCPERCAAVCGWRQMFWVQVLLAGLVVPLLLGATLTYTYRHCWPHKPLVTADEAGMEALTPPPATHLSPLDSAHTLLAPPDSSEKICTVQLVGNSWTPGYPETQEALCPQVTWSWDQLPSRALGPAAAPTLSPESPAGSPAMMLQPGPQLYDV

T1 sequence (chain, as listed by the source limits assumed): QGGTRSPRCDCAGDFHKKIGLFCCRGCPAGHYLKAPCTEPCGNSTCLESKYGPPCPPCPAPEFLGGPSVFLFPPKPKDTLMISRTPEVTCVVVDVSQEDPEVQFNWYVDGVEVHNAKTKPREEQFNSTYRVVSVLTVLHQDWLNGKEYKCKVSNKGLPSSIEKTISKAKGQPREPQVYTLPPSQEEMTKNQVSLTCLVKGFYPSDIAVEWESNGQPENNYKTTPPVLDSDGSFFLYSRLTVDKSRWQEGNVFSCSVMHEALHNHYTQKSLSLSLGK

- Kd (DR3 (CRD1)-Fc): 0.00805 nM
- koff (DR3 (CRD1)-Fc): 3.19e-05 s⁻¹
- kon (DR3 (CRD1)-Fc): 3.97e+06 M⁻¹ s⁻¹
- IC50 at 40 ng/ml TL1A, I5 reporter cells [1]: 0.32 nM
- IC50 of Fab upon stimulation by TL1A, transient reporter (human DR3 R29Q): 0.372 nM
- IC50 at 40 ng/ml TL1A, transient reporter HEK293 [2]: 0.549 nM
- IC50 at 40 ng/ml TL1A, transient reporter HEK293 [3]: 0.355 nM
- IC50 at 40 ng/ml TL1A, transient reporter HEK293 [4]: 73 nM
B1: 0228 (humanized Fab of 27F44, IgG4, hz0072VH S49A / hz0072VL) (Fab, V domains shown)
VH: EVQLVESGGGLVQPGGSLRLSCAASGFTFSNYDMSWVRQATGKGLEWVAAFSSDGYTFYPGSVKGRFTISRENAKNSLYLQMNSLRAGDTAVYYCARHADYANYPVMDYWGQGTLVTVSS
VL: DIQMTQSPSSLSASVGDRVTITCRASKSVSTSGYSYMHWYQQKPGKAPKLLIYLASNLESGVPSRFSGSGSGTDFTLTISSLQPEDFATYYCQHSRELPLTFGGGTKVEIKR
notes: IgG4-Cys, hz (humanized IgG4 Fab with the hinge cysteine kept)
- molar ratio Mab/Fab from which the Fab inhibits [5]: 1 Fab per Mab (molar ratio Mab/Fab 1:n)
